Test results as given in paper PMC6545883.

System: NC(=O)c1ccc[n+]([C@@H]2O[C@H](COP(=O)(O)OP(=O)(O)OC[C@H]3O[C@@H](n4cnc5c(N)ncnc54)[C@H](OP(=O)(O)O)[C@@H]3O)[C@@H](O)[C@H]2O)c1
Test: purified protein
Conditions: varied: cofactor

With PtmO8 (Streptomyces platensis) as the substance, how does the Km read?
The Km was “(1.11 ± 0.11) × 10^3 µM”.

And the Vmax?
Its Vmax is 3.7 µM/min.

What about the kcat of the same substance?
Its kcat is 110 s⁻¹.

And the kcat/Km?
Its kcat/Km is 100000 M⁻¹ s⁻¹.
